Experimental data reported in PMC4707474, “Identification of a small molecule that simultaneously suppresses virulence and antibiotic resistance of Pseudomonas aeruginosa” (Scientific Reports, 2016).

Tests used:
[1] = target: T1, P. aeruginosa DHODase (PyrD, dihydroorotate dehydrogenase) (Pseudomonas aeruginosa, UniProt Q9HZF8); experiment: DCIP-based colorimetric enzyme assay, […] min preincubation, dose-response; format: biochemical
T1 construct: pyrD open reading frame from PAO1 genomic DNA, in pET28a, recombinant Ni-NTA purified

[2] = substrate: O=C1C[C@@H](C(=O)O)NC(=O)N1; experiment: steady-state enzyme kinetics (Km), DCIP colorimetric assay; format: biochemical, Pseudomonas aeruginosa; conditions: FMN
[3] = substrate: COC1=C(OC)C(=O)C(C)=CC1=O; experiment: steady-state enzyme kinetics (Km) as electron acceptor, DCIP colorimetric assay; format: biochemical, Pseudomonas aeruginosa; conditions: FMN

IC50 [1] [µM]	Molecule	Km [2] [µM]	Km [3] [µM]
41	C[C@@H](NC(=O)CSc1nnnn1-c1ccc(O)cc1)c1ccc(-c2ccccc2)cc1 [compound 14]		
	P. aeruginosa DHODase (PyrD, dihydroorotate dehydrogenase) (Pseudomonas aeruginosa PAO1) (protein, pyrD open reading frame from PAO1 genomic DNA, in pET28a, recombinant Ni-NTA purified) MYTLARQLLFKLSPETSHELSIDLIGAGGRLGLNRLLTPKPASLPVSVLGLEFPNPVGLAAGLDKNGDAIDGFGQLGFGFIEIGTVTPRPQPGNPRPRLFRLPQANAIINRMGFNNHGVDHLLARVRAAKYRGVLGINIGKNFDTPVERAVDDYLICLDKVYADASYVTVNVSSPNTPGLRSLQFGDSLKQLLEALRQRQEALALRHGRRVPLAIKIAPDMTDEETALVAAALVEAGMDAVIATNTTLGREGVEGLPHGDEAGGLSGAPVREKSTHTVKVLAGELGGRLPIIAAGGITEGAHAAEKIAAGASLVQIYSGFIYKGPALIREAVDAIAALPRRN	60.8	25.6
